# According to article PMC4932183:
# How the values were obtained:
# [1] = target: activin A mature domain (Homo sapiens) (UniProt P08476); details: cited from earlier work
# [2] = target: myostatin mature domain mature domain (Homo sapiens) (UniProt O14793); details: cited from earlier work
# [3] = target: Avi-tagged follistatin-288, biotinylated (UniProt P19883); test: BLI; biotinylated Avi-tagged FST-288 immobilised on streptavidin biosensors; analytes in kinetic buffer (PBS, 0.1% bovine serum albumin, 0.02% Tween-20); 600 s association, 600 s dissociation; 30 °C
# Avi-tagged follistatin-288, biotinylated, sequence (P19883 30-317): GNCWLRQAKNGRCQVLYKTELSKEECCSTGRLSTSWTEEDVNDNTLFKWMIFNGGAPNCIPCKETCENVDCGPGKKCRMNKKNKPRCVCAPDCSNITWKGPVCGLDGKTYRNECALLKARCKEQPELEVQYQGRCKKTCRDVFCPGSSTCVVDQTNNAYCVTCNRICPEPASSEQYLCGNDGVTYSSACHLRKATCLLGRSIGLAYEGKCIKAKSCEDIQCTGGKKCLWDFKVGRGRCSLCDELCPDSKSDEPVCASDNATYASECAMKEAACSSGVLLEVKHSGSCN
# [4] = target: myostatin mature domain (Homo sapiens) (UniProt O14793); details: cited from earlier work
# myostatin mature domain (Homo sapiens), sequence (O14793 267-375): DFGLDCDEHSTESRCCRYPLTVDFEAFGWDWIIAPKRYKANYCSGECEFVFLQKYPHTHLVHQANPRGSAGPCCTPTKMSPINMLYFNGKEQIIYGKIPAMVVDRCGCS
# activin A mature domain (Homo sapiens), sequence (P08476 311-426): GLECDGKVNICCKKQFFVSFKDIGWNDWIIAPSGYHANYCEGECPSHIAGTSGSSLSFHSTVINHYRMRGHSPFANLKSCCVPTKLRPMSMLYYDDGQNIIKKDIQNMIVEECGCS
# myostatin mature domain mature domain (Homo sapiens), sequence (O14793 267-375): as the sequence (O14793 267-375) above
# myostatin pro-domain pro-domain, sequence (O14793 24-266): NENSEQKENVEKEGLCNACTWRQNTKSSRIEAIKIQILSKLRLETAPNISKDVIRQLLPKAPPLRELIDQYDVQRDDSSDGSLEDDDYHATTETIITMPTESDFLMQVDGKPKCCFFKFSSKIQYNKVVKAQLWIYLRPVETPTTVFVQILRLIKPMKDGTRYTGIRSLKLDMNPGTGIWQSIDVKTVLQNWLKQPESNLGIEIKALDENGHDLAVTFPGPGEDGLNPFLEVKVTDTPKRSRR
# follistatin FST-288, sequence (P19883 30-344): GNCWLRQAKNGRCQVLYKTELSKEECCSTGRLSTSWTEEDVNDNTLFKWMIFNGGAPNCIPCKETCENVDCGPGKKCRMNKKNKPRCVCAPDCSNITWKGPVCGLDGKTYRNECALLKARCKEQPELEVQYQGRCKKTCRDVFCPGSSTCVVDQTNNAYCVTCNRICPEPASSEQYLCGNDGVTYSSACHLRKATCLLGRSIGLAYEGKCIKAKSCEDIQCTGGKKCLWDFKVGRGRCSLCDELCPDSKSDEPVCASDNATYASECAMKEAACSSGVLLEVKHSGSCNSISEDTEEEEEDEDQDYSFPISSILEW
# follistatin, sequence (P19883 30-344): as above
substance,measurement,setting,value
follistatin FST-288 (from UniProt P19883),Kd,[1],0.0465 nM
myostatin pro-domain pro-domain (from UniProt O14793),Kd,[2],8.3 nM
cleaved pro-activin A complex (pro-mature complex) (from UniProt P08476 311-426),Kd,[3],0.259 nM
follistatin (from UniProt P19883),Kd,[4],12.3 nM
